What was measured:
BSA = target: T1, BSA (bovine, UniProt P02769 25-607); test: protein microarray probed with biotinylated PTTG1, Streptavidin-Alexa Fluor 647
T1 construct: Control on the protein microarray; also called bovine serum albumin
Method: The human Protoarray nc3.0 study was performed as described by the manufacturer (obtained from Invitrogen Corporation; Carlsbad, Calif.). […] Arrays were scanned by GenePix 4000B (obtained from Molecular Devices Corporation; Sunnyvale, Calif.), and images analyzed using ProtoArray Prospector (Invitrogen).

His-tagged PTTG1 = target: T2, His-tagged PTTG1
T2 chain: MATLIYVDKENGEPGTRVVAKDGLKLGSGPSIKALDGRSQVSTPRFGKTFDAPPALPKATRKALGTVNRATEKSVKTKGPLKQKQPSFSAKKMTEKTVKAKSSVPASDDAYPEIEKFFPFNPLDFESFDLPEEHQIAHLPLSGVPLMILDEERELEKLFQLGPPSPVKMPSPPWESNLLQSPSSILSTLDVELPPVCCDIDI

T1 sequence (P02769 25-607 limits assumed): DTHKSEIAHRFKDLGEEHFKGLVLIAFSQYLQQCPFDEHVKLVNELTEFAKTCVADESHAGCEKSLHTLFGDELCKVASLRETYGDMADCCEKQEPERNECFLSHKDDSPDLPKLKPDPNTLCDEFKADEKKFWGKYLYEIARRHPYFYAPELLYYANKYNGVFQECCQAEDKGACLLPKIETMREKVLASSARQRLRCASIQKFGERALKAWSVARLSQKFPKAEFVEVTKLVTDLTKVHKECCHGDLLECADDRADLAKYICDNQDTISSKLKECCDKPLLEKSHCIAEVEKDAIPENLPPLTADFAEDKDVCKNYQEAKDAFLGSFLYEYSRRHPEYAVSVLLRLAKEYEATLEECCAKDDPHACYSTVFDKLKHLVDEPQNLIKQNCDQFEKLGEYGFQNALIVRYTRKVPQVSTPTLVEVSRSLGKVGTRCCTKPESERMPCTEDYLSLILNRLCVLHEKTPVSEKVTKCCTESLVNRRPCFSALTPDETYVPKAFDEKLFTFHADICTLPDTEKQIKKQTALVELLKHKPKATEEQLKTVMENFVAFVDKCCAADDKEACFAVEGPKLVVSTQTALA

B1: pituitary tumor transforming gene 1 (PTTG1) protein (other)
chain: MATLIYVDKENGEPGTRVVAKDGLKLGSGPSIKALDGRSQVSTPRFGKTFDAPPALPKATRKALGTVNRATEKSVKTKGPLKQKQPSFSAKKMTEKTVKAKSSVPASDDAYPEIEKFFPFNPLDFESFDLPEEHQIAHLPLSGVPLMILDEERELEKLFQLGPPSPVKMPSPPWESNLLQSPSSILSTLDVELPPVCCDIDI
modifications: biotinylated with biotin-XX sulfosuccinimidyl ester (protein array); biotin-lysine labeled during synthesis (as prey in pull-down); endogenous and unlabeled in co-immunoprecipitation
notes: Used as biotinylated probe on the array, as endogenous protein of HCT116 lysates in co-IP, and as in vitro translated prey in the pull-down; also called securin
binding result (BSA): no binding

B2: GST-Aurora Kinase A (protein)
chain: MDRSKENCISGPVKATAPVGGPKRVLVTQQFPCQNPLPVNSGQAQRVLCPSNSSQRIPLQAQKLVSSHKPVQNQKQKQLQATSVPHPVSRPLNNTQKSKQPLPSAPENNPEEELASKQKNEESKKRQWALEDFEIGRPLGKGKFGNVYLAREKQSKFILALKVLFKAQLEKAGVEHQLRREVEIQSHLRHPNILRLYGYFHDATRVYLILEYAPLGTVYRELQKLSKFDEQRTATYITELANALSYCHSKRVIHRDIKPENLLLGSAGELKIADFGWSVHAPSSRRTTLCGTLDYLPPEMIEGRMHDEKVDLWSLGVLCYEFLVGKPPFEANTYQETYKRISRVEFTFPDFVTEGARDLISRLLKHNPSQRPMLREVLEHPWITANSSKPSNCQNKESASKQS
Aurora Kinase A phosphorylation of histone H3 (Ser10), in vitro kinase assay, Western blot (His-tagged PTTG1): Addition of PTTG1 dose-dependently inhibited Aurora Kinase A histone H3 phosphorylation | Aurora Kinase A phosphorylation of histone H3 (Ser10), in vitro kinase assay, Western blot (control His-GST protein): GST-His has no effect at the same concentration
